Assay: soluble on expression in E. coli; label from the status in PepcDB or PDB records

Soluble on expression in E. coli, not soluble:
MGSDKIHHHHHHMIAHPCYVDKFSQQVHFHAIDFARSRWNIFLLWQLKNLIQQIQPAIVHAQAGKAAELIARIKPFLSGPKFITTVHGTKKNKSAYLAGDAVIAVSQALTQGIPESKAHVVYNGVYPQPVLTTENKEKLLQSIQKDFTELDTSKRVVMCIGRLEPVKNISLLIESMQQIDANLWIVGDGSLRASLEKQVSELNMQNRVAFLGFRTDARDLVQLADIVVLSSDREGFPLVMVEALQADKAMASTKVNGVIEWLPEQYLAEIGDTQGLAKAIEYALQPEAQNDFGPLYAKAKAELTVPAMAEQTLNIYKGLLKT
MGSDKIHHHHHHMIDHLIATDIGGRGSEKLYILYKSKDPDYFSKSLDLLIKSDEVLIVSDFPIPPTMTPETDGPPGALALALGLAELGKKATILTQEIVKEGLRDFYPRITTKFPNIRKFSCLVSIETPGRNFKGEYLSFSGLKISVRPYDDLFLRALELGIPTIGIGDGGNEIGMGNLGLNDERFSVVRVNELIIAGVSNWGAYGLVAGLSMRVGQNLLRDYNEEDVVKSLVDVGLIDGITKKREPTVDGLPLSLHGKILELLIEIVNIKTP
MGSDKIHHHHHHMIELKNVSMIFNPGTVNENQAISNISLKVREGDFITVIGSNGAGKSTLFNLIAGTITPSSGSIFLNDRNITREPEYKRARYIGRIFQNPLLGTASTMSLEDNMMITYKKGFKWLKRSLNHKMREYFRTELVQLKMGLEDRMKENLALFSGGQRQALTLLMMVLSRPDLILLDEHTAALDPKNAQIVLELTDKFIREYNLTAMMITHNMSHAIEYGNRLLMMDKGEIIFEAEGEEKRALTVEKLIDKFHQIRHTSFENDRTLLSDD
MGSDKIHHHHHHMIEYYNFNKSELEKHSRIPLIVKKNNEEIFISLALEMVELIKENNEKNEKTVIICPVGPVGQYPHFVRLVNQFKIDLSNVWFINMDEYLLEDLHWIDVVHPLSFRGFMQKNVYSQIHPTLIMSEEQRIFPDPLDIDSISNKIKELGKIDLCIGGIGLNGHIAFNEPDSTLTVQEFLKLGSRVLPISVETKVMNGLTVLKGAVEEVPNYCVTIGMSEIFQAKKIRLAVFRDWHHAVIRKTVCSKPDTGFPSTLMQIHTNCSIYLNESLAN
MGSDKIHHHHHHMIFYCALSIGRVFSATIKTCPNVHQVHHVVLTIEMSINMQNNEQTEYKTVRGLTRGLMLLNMLNKLDGGASVGLLAELSGLHRTTVRRLLETLQEEGYVRRSPSDDSFRLTIKVRQLSEGFRDEQWISALAAPLLGDLLREVVWPTDVSTLDVDAMVVRETTHRFSRLSFHRAMVGRRLPLLKTASGLTWLAFCPEQDRKELIEMLASRPGDDYQLAREPLKLEAILARARKEGYGQNYRGWDQEEKIASIAVPLRSEQRVIGCLNLVYMASAMTIEQAAEKHLPALQRVAKQIEEGVESQAILVAGRRSGMHLR
MGSDKIHHHHHHMIGIEQYQKIQEYKELGLAQTKTAKALGITYSSVSKYWNMSEEDYVREAEQEKYHMDNYRQYILEQLKICPQIRDTNVYLKLMEAFPDLQVKRATFYRYMKALREQHGYQHTSKRKISPREVSPPGYEAQADFGQYKLKDMYGRIVRVYFFCMVLSYSRMKFVCFSPDPFTTKTGIKVHNYAFQCVWQV
MGSDKIHHHHHHMIGLNCKPLYIENAENQLYNPTLNIKTTMTYLETAAQFYSEVAQTPQVGLCCVQSTPLQLPGLKIPLSMQEMNYGCGTTVHPTELGKQPTVLYVGVGGGLEALQFAYFSRRPGAVIAVDPVAAMREAAARNLEMALTDNPWFESSFVEIREGDAFNLPVADGSVDIVAQNCLFNIFEPEDLTRALKEAYRVLKCGGRLQMSDPIATSPIPAHLQQDERLRAMCLSGALTYEEYTQRIIDAGFGQIEIRARRPYRLLDSQTYNLETHLLLESLDSVSFKVPIPEDGACIFTGKTAIYAGCEDFFDDKAGHILQRGIPATVCDKTAAKLATVKPKEVIITDSTWHYNGGGCC
MGSDKIHHHHHHMIGVAEVVLDVRDLRIYYRTLYGYVKAVDGVSFDIKRGEILGIAGESGCGKSTLGNGLILLKPPMKYMGGEAILDGKNIMALSPKELRKVRYEKISIIPQYAMDAMNPTKKIKQIIDDLLHEHGESFERKKDVIEERLEIVNLGKKVLNMYPIELSGGMKQRMVMVISTLMNPDVLIADEITSALDVSSQRSVIQMLYEMREKEIMGSLAFITHDLSVLYQIADKVMVLYAGRVAEISPMEDIIQEPLHPYTKMLLSSLPKIGVRYSQTKLKGIPGYPPSLLNIGPGCRFRDRCPYAFEKCEQDPPVFDVDGRKVSCWLFERGDAN
MGSDKIHHHHHHMIHVAHHYEMRHPTADIQETSMSSAQEERLRFIDFRLMFLGDVSRQDLTDRFGISEPAATRDLTQYRERCAANMEYSHVQRAYLRNYNFAPLYDHESTEALAMIAHGHLALPRRERKPLLRCDLPIQLDSPDSMVVSTITRAINHQHVISIDYRSHSSGETRRQIVPFALVDNGLRWHIRAYDRRRLRFSDFVISRISNPTIEESVVLTHERWEHDIQWNRIVELELVPHPKRPHPETTLFEYGMVNGISRLRVRAAVAGYFLRRWNVDCSPDHCLEGNEYQLWLKNRETLYGVETLEIAPGYL
MGSDKIHHHHHHMIIAGAVPIKGMELIKGPVKLNKDTFEIKNKELPISMGTCALLGAAFKTLEYFGKEDELTFITAGDVGEGDGSLEIYEELHEINDDLTIIHYIKPKISEIIKVDFSKNVIGDAGGMYAGKAAGIGNKFHMFFPDVGELAFLADENSSHPAYVRGFISEIDDQEIPKLIKMAYTQKMPKNMVVKGSKDHIVNEGNIIETVEYPKFEAMECIGGTGDTLTGIASSLIACGFKTEKAGILGCKLNRKLGELVKPRPDTQIYEIIQKIPEALKEFDL
MGSDKIHHHHHHMIISVINLKGGSGKTTTAMALATAAARHNRNVSVLDTDPQGDATTWAGDAEDAGETLPFTVDSANIGKLKRLRKTMADDELVIIDCPPAGNVVDVACDVSDFVIVPATQGPFELSHALETAESLDAAGKPYALLLLKVENNKLAGNAVNLIRERGASVFDASVPKRVGMQKVIGHAFPSNLNGYEDVYSELEEVIA
MGSDKIHHHHHHMIKAIALLRRKQGLSREQFIAYYETRHAPLIRSLLPGIEDYRRNYVDRTGAFESGIAAIDFDSVTEMRFASRASYDAFLAQAADPEIARLIADDEENVFDRSATRMFVVDETPAALSPDTPSPVLIDELLAERAIRDGLARFARVLDAKAWDALGDVFAADLTFDYGLGEQVGLEALTVNMRRFLDVCGPSQHLIGSIMITVDPGLQSATSRAYVRARHQRAGNSGGPVFDSNGEYVDRWECRAEGWRIVRRDALWQTQSGEAAIIWDGSPAAG
MGSDKIHHHHHHMIKALYTSITGMNATQNALSVTSNNIANAQTVGYKKQKAMFDDLLYNNSIGAKGDDRYAGTNPKSIGNGVKMSGTVTDYTDGTITLTGGKTQAAMEGNGFFVVGDSKAGNMEFTRKGTFTISSDYYITNTEGQYVFAYPADPSTGNVDLSGIPGPLQVPMGSAIGGIRTSKGVVGGNIPADAKQITQELPVYDNAGNTWTMRVEFKQDGEHNYKYKVYMRNESKKETAFNEVNGAGGEVKFDAVGKPDPVNPEANIPFNGGTVKIDFSKLTNHPTEKTLAVTDVDGRAAATVKDCFIADGGYVMVKYSDGSMKAAGQLAVAMFPNEGGLMKTGNGNYTATNTTGILAMGVSGQNGAGKVRGSAQEGANVDLSVEFVDLMLYQRGFQGNAKVIKISDEVLNEVVNLIR
MGSDKIHHHHHHMIKDTVFFAPGVSGGSNASSLSSRHRRAAIILHEIYGINAHIQRAGHEWMTRGFDIYIPALFPHHTPFRYEQQEEAYRHFSANVGFDPAVVTTLLHDLRTQYETLIVVGYSVGATLAWLSAASGLCDGVVCYYGSRIRQYLHLAPLCPTLVIVARYEPAFDPLAMRQALEKRPRVQCKMYDARHGFCDADSATFDAALSHQVMDDVTAFIRDITCANTSPDFQL
MGSDKIHHHHHHMIKKIYFIMVVIGSILLSSCDSYLDIQPVGQVIPTTLTEYRALLTTAYGLKLIDKSVTEFRTDIAMVTDNSNSQNFYSEIEKWNDMSPKDGTREFGWAVYYSVIYYANAIIANKDNIKEGSQEDIDQLVGEAYLLRGYMHFILANLYGQPYTKEGAPETKSIPIKWDLDLEVVLPRNTVKEVYTAILSDIESARGLMHQKEWEAVYAYRFSTLSVDAMESRVRLYMGNWKEAYDAAERILVQKSTLEDLNDPEAKLPNNYTSAEMITAYEFFNDDVTSASILIPAFMEKYDANKDLRRNKYYSLSGDKYISKKSGKAEHNCTFRTGEIYLNAAEAAAQMNKLPEARTRLLQLMEKRYTPEGYAEKKKAVDAMNQADLIKEILEERALELAFEGHRWFDLRRTTRPRIEKVLNGQAYLLEQDDSRYTLRIPQSAIAANPGLLN
MGSDKIHHHHHHMIKLFIVACGYIIYKLGRYCKENEYYMASLLMLQYHKSLSAERQQILYTNFTYYKKLSEKKKLEFEKRVQHFLTNKSFIASDGFEITEQMKVMIAATAVQILFCRKAYYLSSFDFIELFEEVPVHVEVMRKKRIIQISWNEFKKGFDSLIDGYNPGLKIMAMALDLEHKFGEKSLFSQQTYKAFQKIYKQEAEKYILSGKSKYDHYNKVDRTEYFAVAVEYFFERPEHFNVNQPAMYLALSKLLRQDPLGMYTYKEKVFE
MGSDKIHHHHHHMIKRAVEIVRQRGVGVLIKKIPPYIYQQVWPYLPSAGYTYKNGIKSCERGRVLDQFLPKYITQYATHQPSYESQYIEAIRRHVTEGQDVVLVGGGEGISTVVAANQVQRTGEVTVFEGAAEEARKSQVVVEINEVSDRTTVHHTIVSEDVSLRSAASGAEVLPSAELPSCDVLAIDADGAEISILDGIVNHPAVLIVEHHAVADTSGLALEYQPDRVRDLITNLGYDIVDEMSDPAGAGGGRFEERIYVGKRLAVEPSDLM
MGSDKIHHHHHHMINSYLVQQIKGNFLYKPTLEQEKAVKFLADFLFSRQSDSVFLLKGYAGTGKTSLIGALVKTLDQLQQKCVLLAPTGRAAKVFSHYAQHPAYTIHKKIYRQRNFSNDLDNFSLDDNLHQHTLFIVDEASMIANDGLAGAVFGTGRLLDDLIQYVYAGTGCRLMLIGDTAQLPPVGEEESPALSADKLRGYGMEVYEAQLTEVVRQMHDSGILWNATELRRYISEENFLTLPSVRVEGFPDIRMVSGSELIEVINDCYGQAGMDETIVVCRSNKRANIYNKGIRNTILFREDELNSGDLLMVAKNNYFWTEGCKEIDFIANGDIAVVRRVRRVREAYGFRFADVVLAFPDYDGMELEVKLLLDTLHTETPALPKELNDKLFYSVLEDYADITVKRERMKKMKADPHYNALQVKYAYAVTCHKAQGGQWKRVFLDQGYMTEDMLTPDYFRWLYTAFTRATEILYLVNWPKEQTE
MGSDKIHHHHHHMIPSQHFQSTPTVQFDLLTYMIGSYHYNWHPQIELLWLLQGTVEVNVDGTRHQLHANDLILINANRGHATFALTPECIALRLHILPDFYTNQGIDLSSGAFLLNSVTTPQHRDYQTIRQILAQLYLGLHQQDWPIFDLNALYFQLTNLLHHDFFDTGITMTYPQPKTQSSLNRVIDYINQAYDRPITLNEAAKISHYSPAYLSRIFKAELGLNFYEYLTRCRLQHAIYDLENPTTRVADLALANGFQEVKSFNLMFKKHFGQTPSSYRQHLSHGQRPEYDQFKQPLTPTQTTIVQKQLNHWAQLTSTDQLSACESCMYKLHFQEYQALKQKIAQLKTLLNQ

From the DeepSol protein solubility set
